{"source": "paper PMC3507683", "about": "“Crystal Structure of the Hexachlorocyclohexane Dehydrochlorinase (LinA-Type2): Mutational Analysis, Thermostability and Enantioselectivity” (PLoS ONE, 2012)", "target": "the molecule itself", "test": "crystal structure; hanging drop, 293 K, 0.1 M trisodium citrate pH 5.5, 3% PEG 3350; space group P6(3)22; seven subunits in the asymmetric unit; 3.5 Å"}
{"protein": "Hexachlorocyclohexane dehydrochlorinase LinA-type2 (enzyme, UniProt P51697 1-156, looked up, LinA-type2, gamma-hexachlorocyclohexane dehydrochlorinase variant obtained by PCR from metagenomic DNA of an HCH-contaminated soil (GenBank EU863871); It differs by 10 residues from LinA-type1 (= LinA-UT26 of Sphingobium japonicum UT26, 156 amino acids); The printed primers run from the ATG start codon to the last codon, without a stop codon; Homotrimer; also called -type2 protein; source: E. …) MSDLDRLASRAAIQDLYSDQLIGVDKRQEGRLASIWWDDAEWTIEGIGTYKGPEGALDLANNVLWPMYHETIHYGTNLRLEFVSADKVNGIGDVLCLGNLVEGNQSILIAAVYTNEYERRDGVWKFSKLNGCMNYFTPLAGIHFAPPGIHFAPSGA", "values": [{"measurement": "stoichiometry N", "value": 3}]}
